Results: patent US20050025760A1 (KEIO UNIVERSITY, published 2005)
Where a chain is given by its changes, count along the chain named.

What was measured:
[1] = biological target: T1, recombinant protein human Dsg1-His (human, UniProt Q02413 50-548); experiment: ELISA on recombinant human Dsg1-His
T1 construct: extracellular domain; Baculovirus product; not shown: C-terminal His tag
T1 sequence (looked up): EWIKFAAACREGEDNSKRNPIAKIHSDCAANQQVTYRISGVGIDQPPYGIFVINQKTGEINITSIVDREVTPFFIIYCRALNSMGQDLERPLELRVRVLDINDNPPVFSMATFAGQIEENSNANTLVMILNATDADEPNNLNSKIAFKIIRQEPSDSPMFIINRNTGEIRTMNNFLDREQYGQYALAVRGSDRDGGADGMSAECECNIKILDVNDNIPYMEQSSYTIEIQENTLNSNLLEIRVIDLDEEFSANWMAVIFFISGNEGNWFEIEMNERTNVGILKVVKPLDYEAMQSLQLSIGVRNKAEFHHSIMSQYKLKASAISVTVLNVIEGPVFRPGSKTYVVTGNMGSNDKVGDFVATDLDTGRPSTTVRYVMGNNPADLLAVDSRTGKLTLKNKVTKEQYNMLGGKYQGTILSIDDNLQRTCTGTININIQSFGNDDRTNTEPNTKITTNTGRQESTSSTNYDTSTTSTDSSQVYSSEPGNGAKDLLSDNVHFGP
Text: (§1) The baculovirus vectors, pEVmod-Dsg3-His and pEVmod-Dsg1-His, pEVmod-mouse Dsg3-His and pEVmod-mouse Dsg1 -His, that were constructed according to the method as described previously (J. Immunol. 159, 2010-2017, 1997) were used. These recombinant baculoviruses were infected to insect cells, High Five (Invitrogen Corporation), then the recombinant protein human Dsg3-His and Dsg1-His, recombinant protein mouse Dsg3-His and Dsg1-His were collected from the culture media, respectively. In addition, purification of these recombinant proteins was conducted using Ni-NTA column. These purified recombinant proteins were coated on ELISA (Enzyme Linked Immunosorbent Assay) plates, respectively, 50 μl each of the culture supernatant of the anti-Dsg3 monoclonal antibody-producing hybridoma was added to each well, and ELISA was practiced according to the method as previously described (J Clin Invest 105, 625-631, 2000). PV mouse model 1 serum with moderate degree of antibody titer was selected as a positive control, and 1 serum of normal mouse serum was selected as a negative control. Absorbance was determined at wavelength 450 nm (Bio-rad, Hercules, Calif. USA), and the index was shown by the following formula. Index={OD(specimen)−OD(negative control)}/{OD(positive control)−OD(negative control)}×100 A-2 (Living Cell Staining using Culture Mouse Keratinocyte PAM 212)

[2] = biological target: T2, recombinant protein human Dsg3-His (human, UniProt P32926 50-615); experiment: ELISA on recombinant human Dsg3-His
T2 construct: extracellular domain; Baculovirus product; also called recombinant human Dsg3; not shown: C-terminal His tag
T2 sequence (looked up): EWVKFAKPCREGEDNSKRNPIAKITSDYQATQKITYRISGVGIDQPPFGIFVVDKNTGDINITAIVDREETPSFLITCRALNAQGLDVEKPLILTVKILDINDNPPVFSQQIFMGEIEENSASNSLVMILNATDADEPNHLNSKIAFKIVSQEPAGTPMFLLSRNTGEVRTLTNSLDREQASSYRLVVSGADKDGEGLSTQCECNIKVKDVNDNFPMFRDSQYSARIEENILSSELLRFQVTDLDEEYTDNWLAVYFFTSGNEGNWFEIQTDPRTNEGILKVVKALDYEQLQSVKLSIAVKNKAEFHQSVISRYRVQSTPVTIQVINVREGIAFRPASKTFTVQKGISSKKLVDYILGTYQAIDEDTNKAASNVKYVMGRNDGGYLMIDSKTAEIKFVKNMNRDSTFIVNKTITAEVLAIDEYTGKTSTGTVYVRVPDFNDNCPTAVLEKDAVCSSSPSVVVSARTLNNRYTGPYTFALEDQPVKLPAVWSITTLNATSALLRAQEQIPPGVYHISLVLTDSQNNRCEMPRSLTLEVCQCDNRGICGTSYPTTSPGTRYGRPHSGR
Text: as §1

Dsg3-M2 = biological target: T3, Dsg3-M2 (human, UniProt P32926 50-615, T31N; K33Q; I34V); experiment: immunoprecipitation of point-mutated molecules (FIG. 5)
T3 construct: extracellular domain; also called point-mutated human Dsg3 molecule M2; not shown: His tag of vector pEVmod-His
T3 sequence (looked up): T2 sequence (looked up) with T31N, K33Q, I34V

B1: anti-Dsg3 monoclonal antibody AK23 (antibody, mouse IgG1, V domains shown)
VH: QVQLQQSGTELVKPGASVKLSCKSSGYTFTSYWINWVKQRPGQGLEWIGNINPSNGGINYNEKFKSKATLTVDKSSSTAYMQLKSLTSEDSAVYYCARGGYDGYPWGQGTTVTVS
VL: DIQMTQSPKFLLVSAGDRVTITCKASQSVSYDVAWYQQKPGQSPKLLISYASNRYTGVPDRFTGSGYGSDFTFTISTVQTEDLAVYFCQQDYSSPWTFGGGTKLELKR
notes: Mouse IgG1 kappa hybridoma antibody
Q: Does B1 bind [1]?
A: no binding

Q: Does B1 bind [2]?
A: binds

Q: Does B1 bind (Dsg3-M2)?
A: binds
